These are literature values, as cited in article PMC7228754.

As a reminder, the Kd is a measure of binding affinity in units of concentration.

In the data set the target is Rab1b (Homo sapiens) (UniProt Q9H0U4).
Sequence of Rab1b (Homo sapiens) (Q9H0U4 whole entry): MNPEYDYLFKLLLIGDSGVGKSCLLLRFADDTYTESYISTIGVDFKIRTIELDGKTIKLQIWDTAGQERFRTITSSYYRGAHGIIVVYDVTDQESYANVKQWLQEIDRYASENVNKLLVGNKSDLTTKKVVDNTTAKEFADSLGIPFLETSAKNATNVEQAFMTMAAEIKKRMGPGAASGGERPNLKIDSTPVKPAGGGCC

Sequence of AnkX (Q5ZXN6 whole entry): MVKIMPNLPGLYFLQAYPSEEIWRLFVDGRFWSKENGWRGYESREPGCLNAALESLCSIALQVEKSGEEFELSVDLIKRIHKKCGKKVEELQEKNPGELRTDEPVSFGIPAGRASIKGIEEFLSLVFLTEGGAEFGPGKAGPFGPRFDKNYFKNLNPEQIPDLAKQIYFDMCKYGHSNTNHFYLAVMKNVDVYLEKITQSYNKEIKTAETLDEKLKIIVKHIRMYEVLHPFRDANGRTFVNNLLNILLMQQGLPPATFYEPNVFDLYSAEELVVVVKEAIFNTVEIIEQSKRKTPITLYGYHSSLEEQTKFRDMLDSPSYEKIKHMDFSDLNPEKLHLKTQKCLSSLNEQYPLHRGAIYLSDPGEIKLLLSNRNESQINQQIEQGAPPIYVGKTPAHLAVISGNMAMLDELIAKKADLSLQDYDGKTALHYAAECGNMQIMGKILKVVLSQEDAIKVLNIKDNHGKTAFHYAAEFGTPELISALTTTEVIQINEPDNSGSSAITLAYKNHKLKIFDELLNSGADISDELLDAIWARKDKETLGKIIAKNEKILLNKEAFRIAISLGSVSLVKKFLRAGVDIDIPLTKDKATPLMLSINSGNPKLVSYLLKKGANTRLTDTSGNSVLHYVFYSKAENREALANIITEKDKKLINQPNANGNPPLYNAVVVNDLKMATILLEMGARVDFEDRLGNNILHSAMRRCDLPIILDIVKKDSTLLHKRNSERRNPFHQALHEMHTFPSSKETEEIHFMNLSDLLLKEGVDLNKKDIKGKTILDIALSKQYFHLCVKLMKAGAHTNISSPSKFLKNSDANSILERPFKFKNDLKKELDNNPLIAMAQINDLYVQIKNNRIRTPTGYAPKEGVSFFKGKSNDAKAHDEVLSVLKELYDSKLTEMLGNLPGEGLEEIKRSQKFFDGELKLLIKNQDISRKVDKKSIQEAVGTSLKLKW

In the case of AnkX (from UniProt Q5ZXN6), the dissociation constant (Kd) was 122 µM.
